According to publication PMC7954794, “Protein context shapes the specificity of SH3 domain-mediated interactions in vivo” (Nature Communications, 2021):

B1: CYK3 (protein, UniProt Q07533 1-885, looked up)
Cytokinesis protein 3: MATNLTSLKPPFKVKARYGWSGQTKGDLGFLEGDIMEVTRIAGSWFYGKLLRNKKCSGYFPHNFVILLEERLNSSTENGRQPSKIVESFEKSNKVVIPPVPSRYSDERPRPKKKLSSSMPNSPKKPVDSLTKARKAKSKEMVNEKNIYNTQSSRHHNNSAPNLPLASHSKPQVRNFEESMNNPLPPLPPLPDLDNMRKTDKRAPKKSYSANDLHMARSSREYNYYKDNQKFYDGFIPEKRYSLEEDSISSGLFSNSQYLNDSACSSENSFALMSDFSATSAGSFARHKYAQSFSDSLQRSQNANGCSTKINDSQEFGDSNASSRNGKMGDILRKIIIPKRNTNIYSSSVSSPKSPKAYPKLPDIQNLNLSATPDEARDWIAVKCHLNRARTLTKYDKHPRYMRALEENRDLILHPQDSIYNGLNTNEVKGNTKPGLVDVELAELNIEYIDKMTWKRCIRDGTMTLDSWAQTTFSARYSTVLEKLRGIYIFCTEMFALTDDNGTSDFSAEPQNLEKILYRKHCTPYELTWLFKKLANSLGITCEIVIGFLKTPSAINWEFKYNHCWLRILVNKEWRFIDVILGNVTNPIHEFVNNRKIKKAENSYFLMAPLEMIYTHIPPREFEQHIVPSIDQLSALYLPLVFPSFFKNELKLYKFSTALSFLEDSEIYECSLEIPNDVEVFASVVIPTDNEEASSAYRNMELALTQIKKQKAESGRRIALIKAVLPPNVNKGSLYIHSGVRGTQTSIANIHPLSMMVPLTHKGSNMKYEFVIKIPSESIQKIELYIVEPQSRYLFVGNEYSFEVIQSPSDGIVYSSDEGPNQNRKQPMAIKSPSGRVHELVKSDPHFPYGTWKGSIKIKEPGVWSALVIADSGIGWSVFAEWLCV
B2: FUS1 (protein, UniProt P11710 1-512, looked up)
Nuclear fusion protein FUS1: MVATIMQTTTTVLTTVAAMSTTLASNYISSQASSSTSVTTVTTIATSIRSTPSNLLFSNVAAQPKSSSASTIGLSIGLPIGIFCFGLLILLCYFYLKRNSVSISNPPMSATIPREEEYCRRTNWFSRLFWQSKCEDQNSYSNRDIEKYNDTQWTSGDNMSSKIQYKISKPIIPQHILTPKKTVKNPYAWSGKNISLDPKVNEMEEEKVVDAFLYTKPPNIVHIESSMPSYNDLPSQKTVSSKKTALKTSEKWSYESPLSRWFLRGSTYFKDYGLSKTSLKTPTGAPQLKQMKMLSRISKGYFNESDIMPDERSPILEYNNTPLDANDSVNNLGNTTPDSQITSYRNNNIDLITARPHSVIYGTTAQQTLETNFNDHHDCNKSTEKHELIIPTPSKPLKKRKKRRQSKMYQHLQHLSRSKPLPLTPNSKYNGEASVQLGKTYTVIQDYEPRLTDEIRISLGEKVKILATHTDGWCLVEKCNTQKGSIHVSVDDKRYLNEDRGIVPGDCLQEYD

System: Abp1 PPIs
Assay: DHFR-PCA of Abp1 SH3-swapped baits (Fig. 2B-D, S2C, S2F);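 on Protein-protein interaction distance between Abp1 SH3-swapped baits, to ABP1: Euclidean distance between DHFR-PCA score profiles of the baits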;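 on Protein-protein interaction distance between Abp1 SH3-swapped baits, to BEM1-2: Euclidean distance between DHFR-PCA score profiles of the baits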;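 on Protein-protein interaction distance between Abp1 SH3-swapped baits, to BOI1: Euclidean distance between DHFR-PCA score profiles of the baits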;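 on Protein-protein interaction distance between Abp1 SH3-swapped baits, to BZZ1-1: Euclidean distance between DHFR-PCA score profiles of the baits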
Format: cell-based, Saccharomyces cerevisiae
Conditions: sheet Fig2C; for Protein-protein interaction distance between Abp1 SH3-swapped baits, to ABP1: Abp1 bait with swapped SH3, distance to bait with ABP1 SH3; for Protein-protein interaction distance between Abp1 SH3-swapped baits, to BBC1: distance to Abp1 bait with BBC1 SH3; for Protein-protein interaction distance between Abp1 SH3-swapped baits, to BEM1-1: distance to Abp1 bait with BEM1-1 SH3; for Protein-protein interaction distance between Abp1 SH3-swapped baits, to BEM1-2: distance to Abp1 bait with BEM1-2 SH3; for Protein-protein interaction distance between Abp1 SH3-swapped baits, to BOI1: distance to Abp1 bait with BOI1 SH3; for Protein-protein interaction distance between Abp1 SH3-swapped baits, to BOI2: distance to Abp1 bait with BOI2 SH3; for Protein-protein interaction distance between Abp1 SH3-swapped baits, to BUD14: distance to Abp1 bait with BUD14 SH3; for Protein-protein interaction distance between Abp1 SH3-swapped baits, to BZZ1-1: distance to Abp1 bait with BZZ1-1 SH3; for Protein-protein interaction distance between Abp1 SH3-swapped baits, to BZZ1-2: distance to Abp1 bait with BZZ1-2 SH3; for Protein-protein interaction distance between Abp1 SH3-swapped baits, to CDC25: distance to Abp1 bait with CDC25 SH3; for Protein-protein interaction distance between Abp1 SH3-swapped baits, to CTTN: distance to Abp1 bait with CTTN SH3; for Protein-protein interaction distance between Abp1 SH3-swapped baits, to CYK3: distance to Abp1 bait with CYK3 SH3; for Protein-protein interaction distance between Abp1 SH3-swapped baits, to DBNL: distance to Abp1 bait with DBNL SH3; for Protein-protein interaction distance between Abp1 SH3-swapped baits, to FUS1: distance to Abp1 bait with FUS1 SH3; for Protein-protein interaction distance between Abp1 SH3-swapped baits, to HCLS1: distance to Abp1 bait with HCLS1 SH3; for Protein-protein interaction distance between Abp1 SH3-swapped baits, to HOF1: distance to Abp1 bait with HOF1 SH3; for Protein-protein interaction distance between Abp1 SH3-swapped baits, to HSE1: distance to Abp1 bait with HSE1 SH3; for Protein-protein interaction distance between Abp1 SH3-swapped baits, to LSB1: distance to Abp1 bait with LSB1 SH3; for Protein-protein interaction distance between Abp1 SH3-swapped baits, to LSB3: distance to Abp1 bait with LSB3 SH3; for Protein-protein interaction distance between Abp1 SH3-swapped baits, to MYO3: distance to Abp1 bait with MYO3 SH3; for Protein-protein interaction distance between Abp1 SH3-swapped baits, to MYO5: distance to Abp1 bait with MYO5 SH3; for Protein-protein interaction distance between Abp1 SH3-swapped baits, to NBP2: distance to Abp1 bait with NBP2 SH3; for Protein-protein interaction distance between Abp1 SH3-swapped baits, to PEX13: distance to Abp1 bait with PEX13 SH3; for Protein-protein interaction distance between Abp1 SH3-swapped baits, to PIN3: distance to Abp1 bait with PIN3 SH3; for Protein-protein interaction distance between Abp1 SH3-swapped baits, to RVS167: distance to Abp1 bait with RVS167 SH3; for Protein-protein interaction distance between Abp1 SH3-swapped baits, to SDC25: distance to Abp1 bait with SDC25 SH3; for Protein-protein interaction distance between Abp1 SH3-swapped baits, to SHO1: distance to Abp1 bait with SHO1 SH3; for Protein-protein interaction distance between Abp1 SH3-swapped baits, to SLA1-1: distance to Abp1 bait with SLA1-1 SH3; for Protein-protein interaction distance between Abp1 SH3-swapped baits, to SLA1-2: distance to Abp1 bait with SLA1-2 SH3; for Protein-protein interaction distance between Abp1 SH3-swapped baits, to SLA1-3: distance to Abp1 bait with SLA1-3 SH3; for Protein-protein interaction distance between Abp1 SH3-swapped baits, to YSC84: distance to Abp1 bait with YSC84 SH3
Procedure, shortened: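 Yeast DHFR-PCA in which Abp1 baits, carrying their SH3 replaced by CRISPR–Cas9 with one of 27 yeast SH3s or human CTTN, HCLS1 or DBNL SH3s, were mated against 575 SH3-associated DHFR F[3] preys plus 40 negative controls. Four tests were run per PPI. Diploids were selected twice (48 h, 30 °C), then grown 4 days on PCA selection media.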

Row | Molecule | Protein-protein interaction distance between Abp1 SH3-swapped baits, to ABP1 | Protein-protein interaction distance between Abp1 SH3-swapped baits, to BBC1 | Protein-protein interaction distance between Abp1 SH3-swapped baits, to BEM1-1 | Protein-protein interaction distance between Abp1 SH3-swapped baits, to BEM1-2 | Protein-protein interaction distance between Abp1 SH3-swapped baits, to BOI1 | Protein-protein interaction distance between Abp1 SH3-swapped baits, to BOI2 | Protein-protein interaction distance between Abp1 SH3-swapped baits, to BUD14 | Protein-protein interaction distance between Abp1 SH3-swapped baits, to BZZ1-1 | Protein-protein interaction distance between Abp1 SH3-swapped baits, to BZZ1-2 | Protein-protein interaction distance between Abp1 SH3-swapped baits, to CDC25 | Protein-protein interaction distance between Abp1 SH3-swapped baits, to CTTN | Protein-protein interaction distance between Abp1 SH3-swapped baits, to CYK3 | Protein-protein interaction distance between Abp1 SH3-swapped baits, to DBNL | Protein-protein interaction distance between Abp1 SH3-swapped baits, to FUS1 | Protein-protein interaction distance between Abp1 SH3-swapped baits, to HCLS1 | Protein-protein interaction distance between Abp1 SH3-swapped baits, to HOF1 | Protein-protein interaction distance between Abp1 SH3-swapped baits, to HSE1 | Protein-protein interaction distance between Abp1 SH3-swapped baits, to LSB1 | Protein-protein interaction distance between Abp1 SH3-swapped baits, to LSB3 | Protein-protein interaction distance between Abp1 SH3-swapped baits, to MYO3 | other results
1 | B1 | 26.78 | 25.11 | 17.6 | 11.87 | 21.68 | 20.06 | 16.1 | 26.08 | 22.45 | 5.497 | 21.37 | 0.00 | 25.11 | 14.91 | 28.59 | 10.8 | 25.16 | 31.53 | 31.13 | 30.11 | Protein-protein interaction distance between Abp1 SH3-swapped baits, to MYO5: 29.49; Protein-protein interaction distance between Abp1 SH3-swapped baits, to NBP2: 15.74; Protein-protein interaction distance between Abp1 SH3-swapped baits, to PEX13: 29.86; Protein-protein interaction distance between Abp1 SH3-swapped baits, to PIN3: 28.76; Protein-protein interaction distance between Abp1 SH3-swapped baits, to RVS167: 28.09; Protein-protein interaction distance between Abp1 SH3-swapped baits, to SDC25: 15.21; Protein-protein interaction distance between Abp1 SH3-swapped baits, to SHO1: 24.75; Protein-protein interaction distance between Abp1 SH3-swapped baits, to SLA1-1: 5.436; Protein-protein interaction distance between Abp1 SH3-swapped baits, to SLA1-2: 14.43; Protein-protein interaction distance between Abp1 SH3-swapped baits, to SLA1-3: 31.65; Protein-protein interaction distance between Abp1 SH3-swapped baits, to YSC84: 31.42
2 | B2 | 18.44 | 16.64 | 8.021 | 22.67 | 12.53 | 10.5 | 7.121 | 17.24 | 12.64 | 14.2 | 13.46 | 14.91 | 16.42 | 0.00 | 20.02 | 21.29 | 16.23 | 23.45 | 23.48 | 21.97 | Protein-protein interaction distance between Abp1 SH3-swapped baits, to MYO5: 21.47; Protein-protein interaction distance between Abp1 SH3-swapped baits, to NBP2: 8.037; Protein-protein interaction distance between Abp1 SH3-swapped baits, to PEX13: 21.37; Protein-protein interaction distance between Abp1 SH3-swapped baits, to PIN3: 21.08; Protein-protein interaction distance between Abp1 SH3-swapped baits, to RVS167: 19.5; Protein-protein interaction distance between Abp1 SH3-swapped baits, to SDC25: 24.28; Protein-protein interaction distance between Abp1 SH3-swapped baits, to SHO1: 16.07; Protein-protein interaction distance between Abp1 SH3-swapped baits, to SLA1-1: 17.65; Protein-protein interaction distance between Abp1 SH3-swapped baits, to SLA1-2: 8.845; Protein-protein interaction distance between Abp1 SH3-swapped baits, to SLA1-3: 23.5; Protein-protein interaction distance between Abp1 SH3-swapped baits, to YSC84: 23.88
